{"source": "patent US6518016", "target": "factor Xa-activated factor V(Q506) (UniProt P12259)", "sequence (P12259 29-737 R534Q, chain 1 of 2)": "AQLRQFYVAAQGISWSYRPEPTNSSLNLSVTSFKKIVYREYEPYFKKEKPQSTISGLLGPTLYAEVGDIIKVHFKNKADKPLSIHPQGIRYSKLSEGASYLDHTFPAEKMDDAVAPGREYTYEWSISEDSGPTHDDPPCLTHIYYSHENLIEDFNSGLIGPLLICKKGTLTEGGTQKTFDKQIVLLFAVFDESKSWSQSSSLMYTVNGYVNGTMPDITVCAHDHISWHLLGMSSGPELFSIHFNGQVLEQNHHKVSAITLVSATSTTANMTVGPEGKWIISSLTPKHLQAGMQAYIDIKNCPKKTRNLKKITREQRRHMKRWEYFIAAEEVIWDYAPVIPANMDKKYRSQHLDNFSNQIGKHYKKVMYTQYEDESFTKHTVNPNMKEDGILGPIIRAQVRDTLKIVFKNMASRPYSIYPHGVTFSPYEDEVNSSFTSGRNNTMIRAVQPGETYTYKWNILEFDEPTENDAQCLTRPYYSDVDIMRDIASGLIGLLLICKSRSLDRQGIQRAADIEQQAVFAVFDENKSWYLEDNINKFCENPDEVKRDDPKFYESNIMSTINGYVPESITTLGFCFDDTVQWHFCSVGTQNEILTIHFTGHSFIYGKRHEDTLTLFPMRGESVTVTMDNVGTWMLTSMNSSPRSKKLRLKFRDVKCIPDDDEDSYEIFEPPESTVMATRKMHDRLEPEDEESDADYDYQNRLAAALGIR", "sequence (P12259 1047-2224, chain 2 of 2)": "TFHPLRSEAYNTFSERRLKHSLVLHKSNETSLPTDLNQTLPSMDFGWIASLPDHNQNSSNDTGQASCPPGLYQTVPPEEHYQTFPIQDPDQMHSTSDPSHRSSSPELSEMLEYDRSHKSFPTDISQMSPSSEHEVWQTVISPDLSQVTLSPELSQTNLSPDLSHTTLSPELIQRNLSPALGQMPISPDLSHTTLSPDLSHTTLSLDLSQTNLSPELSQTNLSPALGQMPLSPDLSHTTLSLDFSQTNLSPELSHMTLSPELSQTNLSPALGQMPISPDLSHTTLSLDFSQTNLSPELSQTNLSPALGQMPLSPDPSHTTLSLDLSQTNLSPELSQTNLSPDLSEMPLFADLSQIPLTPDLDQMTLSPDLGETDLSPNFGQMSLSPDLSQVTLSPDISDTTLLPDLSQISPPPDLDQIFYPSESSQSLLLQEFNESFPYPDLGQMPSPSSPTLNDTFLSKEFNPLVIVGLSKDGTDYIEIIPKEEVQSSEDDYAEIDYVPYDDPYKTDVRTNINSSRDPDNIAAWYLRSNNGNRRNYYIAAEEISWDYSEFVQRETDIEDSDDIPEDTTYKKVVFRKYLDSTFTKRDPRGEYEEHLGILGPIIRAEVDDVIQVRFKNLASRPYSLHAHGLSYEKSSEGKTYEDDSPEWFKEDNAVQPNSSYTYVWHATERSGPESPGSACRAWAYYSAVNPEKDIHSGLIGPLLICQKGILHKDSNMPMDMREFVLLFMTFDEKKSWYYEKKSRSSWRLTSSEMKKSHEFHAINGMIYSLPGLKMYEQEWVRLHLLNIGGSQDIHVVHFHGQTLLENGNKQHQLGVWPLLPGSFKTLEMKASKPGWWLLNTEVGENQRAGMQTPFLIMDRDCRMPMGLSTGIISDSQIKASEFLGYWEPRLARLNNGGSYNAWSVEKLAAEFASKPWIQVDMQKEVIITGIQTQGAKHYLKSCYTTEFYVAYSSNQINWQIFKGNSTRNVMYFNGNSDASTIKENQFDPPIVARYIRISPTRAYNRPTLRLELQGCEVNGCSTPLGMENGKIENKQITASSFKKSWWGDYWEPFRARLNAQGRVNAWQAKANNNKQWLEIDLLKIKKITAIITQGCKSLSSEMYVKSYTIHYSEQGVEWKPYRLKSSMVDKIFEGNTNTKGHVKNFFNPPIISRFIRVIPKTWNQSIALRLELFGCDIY", "data": [{"substance": "activated protein C (APC)", "values": [{"measurement": "inactivation of factor Va activity by APC (factor Va activity over time after adding 1.9 nM APC)", "result": "the replacement of Arg-506 by Gln only prevents the inactivation of the Xa-activated form of factor V by APC"}]}]}
